Experiments:
[1] = tested on: neutrophil migration; conditions: clinical trials against cystic fibrosis; cited from earlier work
[2] = tested on: pulmonary function (FEV1); conditions: clinical trials for COPD patients; worsened in the placebo group; cited from earlier work
[3] = commercially available antibodies, known values; cited from earlier work
[4] = target: T1, human FcγRIa (Homo sapiens, UniProt P12314); assay: Binding to soluble FcγR (BIACORE T200); conditions: 20° C., HBS-EP+
T1 construct: the soluble forms of FcγRIa and FcγRIIIa in human and cynomolgus monkey; His tag; made in house
Protocol: (§1) Soluble FcγRIa and FcγRIIIa in both human and cynomolgus monkey were produced in the form of His-tagged molecules by methods known to those of ordinary skill in the art. […] Next, soluble FcγRIa or FcγRIIIa was injected with a running buffer (used as a reference solution), and was made to interact with the antibodies captured onto the sensor chip. HBS-EP+(GE Healthcare) was used as the running buffer, and HBS-EP+ was also used to dilute the soluble FcγRIa or FcγRIIIa. […] All measurements were carried out at 20° C.

[5] = target: T2, cynomolgus monkey FcγRIIIa (Macaca fascicularis, UniProt Q8SPW2); assay: Binding to soluble FcγR (BIACORE T200); conditions: 20° C., HBS-EP+
T2 construct: the soluble forms of FcγRIa and FcγRIIIa in human and cynomolgus monkey; His tag; made in house
Protocol: as §1

[6] = target: T3, human FcγRIIIa (Homo sapiens, UniProt P08637); assay: Binding to soluble FcγR (BIACORE T200); conditions: 20° C., HBS-EP+
T3 construct: the soluble forms of FcγRIa and FcγRIIIa in human and cynomolgus monkey; His tag; made in house
Protocol: as §1

[7] = tested on: cynomolgus monkey FcγRIa; assay: Binding to soluble FcγR (BIACORE T200); conditions: 20° C., HBS-EP+
Protocol: as §1

T1 sequence (P12314 16-292 limits assumed): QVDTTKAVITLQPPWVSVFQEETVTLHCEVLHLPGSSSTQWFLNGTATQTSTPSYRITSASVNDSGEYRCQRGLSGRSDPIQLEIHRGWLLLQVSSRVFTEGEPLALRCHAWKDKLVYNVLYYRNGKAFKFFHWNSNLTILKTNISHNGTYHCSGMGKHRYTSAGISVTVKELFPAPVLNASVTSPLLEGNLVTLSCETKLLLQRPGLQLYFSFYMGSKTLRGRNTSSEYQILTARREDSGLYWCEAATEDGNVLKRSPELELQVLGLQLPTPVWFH
T3 sequence (P08637 17-208 limits assumed): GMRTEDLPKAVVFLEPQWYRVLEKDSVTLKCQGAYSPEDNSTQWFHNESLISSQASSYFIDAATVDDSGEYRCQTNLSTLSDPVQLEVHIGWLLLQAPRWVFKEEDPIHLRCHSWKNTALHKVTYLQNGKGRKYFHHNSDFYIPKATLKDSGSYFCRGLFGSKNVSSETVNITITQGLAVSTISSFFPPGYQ
T2 sequence (Q8SPW2 17-208 limits assumed): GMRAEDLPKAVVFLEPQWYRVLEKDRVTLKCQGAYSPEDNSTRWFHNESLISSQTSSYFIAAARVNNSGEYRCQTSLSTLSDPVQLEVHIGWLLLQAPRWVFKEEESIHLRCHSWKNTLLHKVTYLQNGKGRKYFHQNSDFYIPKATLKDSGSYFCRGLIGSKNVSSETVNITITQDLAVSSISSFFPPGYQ

Molecule: O=C(Nc1ccc(Cl)c(S(=O)(=O)N2CCNCC2)c1O)Nc1cccc(F)c1Cl [Elubrixin]
- topical neutrophil migration [1]: Topical neutrophil migration was observed to be suppressed

Molecule: CC[C@@H](Nc1c(Nc2cccc(C(=O)N(C)C)c2O)c(=O)c1=O)c1ccc(C)o1 [MK7123]
- pulmonary function (FEV1) [2]: pulmonary function (FEV1) was improved in the active drug group

Molecule: Campath: commercially available antibody
- frequency of ADA development in humans [3]: 45%

Molecule: Zenapax: commercially available antibody
- frequency of ADA development in humans [3]: 14%

B1: H1009/L395-F1886m: variable region of H1009/L395 with Fc variant F1886m (antibody)
heavy: QVQLVESGGGLVQPGGSLRLSCAASGFTFSDYYLSWVRQAPGKGLEWVGLIRNKDNYHTPEYSASVKGRFTISRDDSKNSLYLTMSDLKTEDTAVYYCARENHRYDVELAYWGQGTLVTVSSASTKGPSVFPLAPSSKSTSGGTAALGCLVKDYFPEPVTVSWNSGALTSGVHTFPAVLQSSGLYSLSSVVTVPSSSLGTQTYICNVNHKPSNTKVDKKVEPKSCDKTHTCPPCPAPELLGGPSVFLFPPKPKDTLMISRTPEVTCVVVDVSHEDPEVKFNWYVDGVEVHNAKTKPREEQYNSTYRVVSVLTVLHQDWLNGKEYKCKVSNKALPAPIEKTISKAKGQPREPQVYTLPPSREEMTKNQVSLTCLVKGFYPSDIAVEWESNGQPENNYKTTPPVLDSDGSFFLYSKLTVDKSRWQQGNVFSCSVLHEALHAHTTRKELSLSP
light: DIQMTQSPSSLSASVGDRVTITCRASEIIYSYLAWYQQKPGKAPKLLIYKAKTHADGVPSRFSGSGSGTDFTFTISSLQPEDIATYYCKHHFGFPRTFGQGTKVEIKRTVAAPSVFIFPPSDEQLKSGTASVVCLLNNFYPREAKVQWKVDNALQSGNSQESVTEQDSKDSTYSLSSTLTLSKADYEKHKVYACEVTHQGLSSPVTKSFNRGEC
- binding to soluble human FcγRIa [4]: bind to all FcγRs
- binding to soluble cynomolgus monkey FcγRIIIa [5]: bind to all FcγRs
- binding to soluble human FcγRIIIa [6]: bind to all FcγRs
- binding to soluble cynomolgus monkey FcγRIa [7]: bind to all FcγRs

Reference: patent US20210301011A1, “COMPOSITION FOR PROPHYLAXIS OR TREATMENT OF IL-8 RELATED DISEASES” (CHUGAI SEIYAKU KABUSHIKI KAISHA, priority 2016, published 2021)
